Measured values as given in article PMC4326804.
Values joined by “and” are separate entries in the source; they are usually repeats but may differ in a detail not shown here. Equal entries are not always repeated.

Legend:
[1] = target: free-tag TSWV N protein (tomato spotted wilt virus (Yunnan isolate)); assay: native gel or EMSA; 4-16% discontinuous blue native PAGE at 4 °C, cathode buffer 100 mM histidine pH 8.0 with 0.002% Coomassie G-250; purified N protein without PEI treatment (carries E. coli RNA); self-association
[2] = target: His6-tagged nucleocapsid (N) protein of tomato spotted wilt virus (TSWV) (tomato spotted wilt virus (Yunnan isolate)); assay: cross-linking; 30 ug purified N protein with increasing glutaraldehyde, 37 °C for 5 min, quenched with Tris-HCl pH 7.5; 5-20% SDS-PAGE, Coomassie staining; self-association

| Substance | stoichiometry N [1] | stoichiometry N [2] |
| --- | --- | --- |
| free-tag TSWV N protein (natural protein) | 2 and 3 and 4 |  |
| His6-tagged nucleocapsid (N) protein of tomato spotted wilt virus (TSWV) (natural protein) |  | > 3 and 2 and 3 |
